Reference: EP0239400B1
pKd: −log10 of the molar value.

Legend:
[1] = target: hen eggwhite lysozyme (hen) (UniProt P00698); test: fluorescence quench titration with hen eggwhite lysozyme, in solution
[2] = target: hen eggwhite lysozyme (hen) (UniProt P00698); test: fluorescence quench titration with hen eggwhite lysozyme, in solution; reassociated chains

Sequence of UniProt P00698 (P00698 19-147 limits assumed): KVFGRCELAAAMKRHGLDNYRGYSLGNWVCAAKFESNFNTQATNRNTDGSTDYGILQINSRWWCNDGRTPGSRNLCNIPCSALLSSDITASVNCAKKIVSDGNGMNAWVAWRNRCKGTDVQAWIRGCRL

Substance | pKd [1] | pKd [2]
antilysozyme antibody D1.3 (H₂K₂) | 7.84 | 7.94
recombinant D1.3 (H*₂K₂) (reassociated) (antibody) |  | 8.04
